In assay [1] the target is chimeric DNGR-1:dectin-1 ECD (neck region of long mouse DNGR-1 fused to the CTLD of dectin-1) (mouse). The assay is described as follows: non-reducing SDS-PAGE and Western blot; supernatants of 293F cells with FLAG-tagged ECD proteins, Laemmli buffer without reducing agent, HRP-conjugated anti-FLAG detection. On the technique in general: A western blot detects proteins with antibodies after separation by electrophoresis.

Assay [2] concerns the target full-length WT DNGR-1 (mouse, long isoform), transmembrane receptor (mouse). Description: reducing SDS-PAGE and Western blot; Phoenix cells expressing full-length DNGR-1 lysed in 1% SDS in 10 mM MES pH 6.1; reducing conditions; anti-DNGR-1 (clone 397) detection.
The target is the same in assay [3]. Description: reducing SDS-PAGE and Western blot; Phoenix cells expressing full-length DNGR-1 lysed in 1% SDS in PBS; reducing conditions; anti-DNGR-1 (clone 397) detection; reduction-sensitive (type-1) dimers run as monomers.
In assay [4] the target is full-length Δ4 DNGR-1 (mouse, long isoform; N81–T90 removed) (mouse). The assay is described as follows: reducing SDS-PAGE and Western blot; Phoenix cells expressing full-length DNGR-1 lysed in 1% SDS in 10 mM MES pH 6.1; reducing conditions; anti-DNGR-1 (clone 397) detection.
The target is the same in assay [5]. The assay is described as follows: reducing SDS-PAGE and Western blot; Phoenix cells expressing full-length DNGR-1 lysed in 1% SDS in PBS; reducing conditions; anti-DNGR-1 (clone 397) detection; reduction-sensitive (type-1) dimers run as monomers.
Assay [6] addresses long mouse DNGR-1 ECD (extracellular domain of the long isoform of mouse DNGR-1, wild type) (mouse). The assay is described as follows: reducing SDS-PAGE and Western blot; purified ECD diluted into buffers of low pH and low ionic strength (10 mM MES pH 6.1; 10 mM Tris; 36 buffers of pH 6.5–8.05 and 15–250 mM ionic strength); 100 mM DTT in Laemmli buffer; reduction-resistant (type-2) dimers.

For assay [7] the target is unchanged. The assay is described as follows: non-reducing SDS-PAGE and Western blot; supernatants of 293F cells with FLAG-tagged ECD proteins, Laemmli buffer without reducing agent, HRP-conjugated anti-FLAG detection.
Assay [8] shares this target. Description: non-reducing SDS-PAGE and Western blot; purified long mouse ECD in PBS or 10 mM MES pH 6.1, Laemmli buffer or 8 M urea, no reducing agent.
Assay [9] deals with Δ3A mutant long mouse DNGR-1 ECD (all residues of block 3, L72–L82, replaced by alanines) (mouse). Description: non-reducing SDS-PAGE and Western blot; supernatants of 293F cells with FLAG-tagged ECD proteins, Laemmli buffer without reducing agent, HRP-conjugated anti-FLAG detection.
The target in assay [10] is Δ4 mutant long mouse DNGR-1 ECD (N81–T90 removed) (mouse). The assay is described as follows: reducing SDS-PAGE and Western blot; supernatants with FLAG-tagged ECD proteins, neat or diluted into PBS (neutral conditions); reduced with DTT (100 mM) or β-ME in Laemmli buffer; anti-FLAG detection.
Assay [11] has the same target. The assay is described as follows: reducing SDS-PAGE and Western blot; supernatants with FLAG-tagged ECD proteins diluted into 10 mM MES pH 6.1; 100 mM DTT in Laemmli buffer; anti-FLAG detection; reduction-resistant (type-2) dimers.
The target of assay [12] is Δ4A mutant long mouse DNGR-1 ECD (all residues of block 4, N81–T90, replaced by alanines) (mouse). Description: reducing SDS-PAGE and Western blot; supernatants with FLAG-tagged ECD proteins, neat or diluted into PBS (neutral conditions); reduced with DTT (100 mM) or β-ME in Laemmli buffer; anti-FLAG detection.
For assay [13] the target is unchanged. The assay is described as follows: non-reducing SDS-PAGE and Western blot; supernatants of 293F cells with FLAG-tagged ECD proteins, Laemmli buffer without reducing agent, HRP-conjugated anti-FLAG detection.
Assay [14] addresses Δ6A mutant long mouse DNGR-1 ECD (all residues of block 6, Q95–S104, replaced by alanines) (mouse). The description is as above.

Sequence of long mouse DNGR-1 ECD (extracellular domain of the long isoform of mouse DNGR-1, wild type) (domain or fragment) (Q8BRU4 113-235): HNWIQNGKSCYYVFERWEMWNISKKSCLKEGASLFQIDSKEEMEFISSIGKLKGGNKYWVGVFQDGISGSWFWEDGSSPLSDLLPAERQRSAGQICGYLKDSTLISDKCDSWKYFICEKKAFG
Sequence of full-length WT DNGR-1 (mouse, long isoform), transmembrane receptor (Q8BRU4 whole entry, canonical isoform): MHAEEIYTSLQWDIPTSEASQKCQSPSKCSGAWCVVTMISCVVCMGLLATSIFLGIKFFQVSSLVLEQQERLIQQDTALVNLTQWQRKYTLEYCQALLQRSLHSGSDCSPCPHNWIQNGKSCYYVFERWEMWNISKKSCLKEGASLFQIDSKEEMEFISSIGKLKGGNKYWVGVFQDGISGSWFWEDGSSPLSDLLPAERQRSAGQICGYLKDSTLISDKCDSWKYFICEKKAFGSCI

For “chimeric DNGR-1:dectin-1 ECD (neck region of long mouse DNGR-1 fused to the CTLD of dectin-1)”, the stoichiometry N (in general, a count of units in the complex or per binding partner) in [1] was 2.

As for “full-length WT DNGR-1 (mouse, long isoform), transmembrane receptor”, the stoichiometry N in assay [2] and in assay [3] was 2 in each case.

Consider “full-length Δ4 DNGR-1 (mouse, long isoform; N81–T90 removed) (receptor)”, for which the stoichiometry N in [4] and in [5] was 2 throughout.

On to “long mouse DNGR-1 ECD (extracellular domain of the long isoform of mouse DNGR-1, wild type) (domain or fragment)”, for which the stoichiometry N in [6], in [7] and in assay [8] was 2 each time.

In assay [9], “Δ3A mutant long mouse DNGR-1 ECD (all residues of block 3, L72–L82, replaced by alanines) (domain or fragment)” displayed a stoichiometry N of 2.

Take “Δ4 mutant long mouse DNGR-1 ECD (N81–T90 removed) (domain or fragment)”: the stoichiometry N in [10] and in [11] was 2 in each case.

As for “Δ4A mutant long mouse DNGR-1 ECD (all residues of block 4, N81–T90, replaced by alanines) (domain or fragment)”, the stoichiometry N in [12] and in assay [13] was 2 each time.

“Δ6A mutant long mouse DNGR-1 ECD (all residues of block 6, Q95–S104, replaced by alanines) (domain or fragment)” gave a stoichiometry N in [14] of 2.

Values taken from paper PMC5109244.
